Results published in the nanobody polyreactivity screen of Harvey et al. (2022).

Test: yeast display, Sf9 membrane polyspecificity reagent, FACS + sequencing; frameworks hold sequencing errors
Method in brief: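 Sorting gates, low and high (top ~1%), were placed on anti-HA fluorescence to track expression and on streptavidin fluorescence to track reagent binding. A clone's polyreactivity label is taken from the gate it came out of. The reagent was 10% biotinylated, detergent-solubilized Sf9 membrane, applied for 1 hour at 4 °C to galactose-induced yeast display cells.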

Sequence	polyreactivity (PSR sort gate)
QVQLVETGGGLVQAGGSLRLSCAASGFIFGYNAMGWYRQAPGKERELVATISWSGGSTYYADSVKGRFTISRDNAKNTVYLQMNSLKPEDSAVYYCAAEGWERLGWVSWVTVDYWGQGTQVTVSS	low polyreactivity
QVQLVESGGGLVQAGGSLRLSCAASGRTFTYYAMGWYRQAPGKERELVAAISNGGRTYYADSVKGRFTISRDNAKNTVYLQMNSLKPEDTAVYYSAAYLSPKGRGFGSWGQGTQVTVSS	high polyreactivity
QVQLVESGGGLVQAGGRLRLSCAASGRTFAFYTMGWYRQAPGKEREFVAAISWSGGSTHYADSVKGRFTISRDNAKNTVYLQMNSLKPEDTAVYYCDAGPFYRFTDGRYKTLDYWGQGTQVTVSS	high polyreactivity
QVQLVESGGGLVQAGGSLRLSCAASGRTFYNYAMGWYRQAPGKERELVASIRKNGGSTYYADSVKGRFTISRDNAKNTVYLQMNSLKPEDTAVYYCAARYWGISRIFPSKYDYWGQGTQVTVSS	high polyreactivity
QVQHVESGGGLVQAGGSLRLSCAASGRIFVYYALGWYRQAPGKERELVASISYSGASTYYADSVKGRFTISRDNAKNTVYLQMNSLKPEDTAVYYCNTDGDDFFHVIYDYWGQGTQVTVSS	low polyreactivity
HVQLVESGGGLVQAGGSLRLSCAASGRIFTLYDMGWYRQAPGKERELVAAISNSAGSTYYADSVKGRFTISRDNAKNTVYLQMNSLKPEDTAVYYCAAELWSWGGARDYWGQGTQVTVSS	high polyreactivity
QVQLVESGGGLVQAGGSLRLSCAASGLTISTNAMGWYRQAPGKERELVAAISRAGSTYYADSVKGRFTISRDNAKNTVYLQMNSLKPEDTAVYYCAAKYRYSTYHRGSFNFWGQGTQVTVSS	high polyreactivity
QVQLVESGGGLVQAGVSLRLSCAASGFTFSRNAMGWYRQAPGKERELVAAISRSGGSTYYAYSVKGRFTISRDNAKNTVYLQINSLKQEDTAVYYCATSCTPNYFVTSDYWGQGTQVTVSS	high polyreactivity
QVQLVESGGGLVQAGGSLRLSCAASGSIFVGYAMGRYRQAPGKERELVAAISSRGGSTYYADSVKGRFTISRDNAKNTVYLQMNSLKPEDTGVYYCAAEYRAWWYEYDYWGQGTQVTVSS	high polyreactivity
QVQLVESGGGLVQAGGSLRLSCAASGFIFPRNVMGWYRQAPGKERELVAAISRSGGSTYYADSVKGRITISRDNAKNTVYLQMNSLKPEDTAVYYCDKRTFYNGEYWGQGTQVTVSS	high polyreactivity
QVQLVESGVGLVQAGGSLRLSCAASGRIFAFYTMGWYRQAPGKERELVAASSTRGDSTYYADSVKGRFTISRDNAKNTVYLQMNSLKAEDTAVYYCAKSRQTSGRVRFDYWGQGTQVTVSS	low polyreactivity
QVQLVESGGGLVQAGGSLRISCAASGSNFNPYDMGGYRQAPGKESELVAAIRTAGSTYYADSVKGRFTISRDNAKNTVYLQMISLNPEDTAVYYCNADEGFLYSAYEYDYWGQGTQVTVSS	low polyreactivity
QVQLVESGGGLVQAGGSLRLSCSASGSIFPYYSMGWYRQAPGQERQLVAAISYSGGRTRYADSVKGRFTISRDNAKNTVYLQMNSLKPEDTAVYYCAVVDRHQPYGRQLDYWGQGTQVTVSS	low polyreactivity
QVQLVESGGGLVQAGGSLRLSCAASGSILYRYAMGWYRQAPGKERELVAAITRSGGSTYYADSVKGRFTISRDNAKNTVYLQMNSLKPEDTAVYYCARQRKVSAHSIEMDYWGQGTQVTVSS	low polyreactivity
QVQLVESGGGLVQAGVSLRLSCAASGSTFTGTAMGWYIQAPGKERELVASINGSSGSTYYADSVKGRFTISRDNAKNTVYLQMNSLKPEDTAVYYCAKDSFLHFPRVGWVGLEYWGQGTQVTLSS	low polyreactivity
QVQLVESGGGLVQAGGSLRLSCAASGTTFYKYSMGWYRQAPGKERELVAAITSRGDRTYYADSVKGRFTISRDNANNTVYLQMNSLKPEDTAVYYCAATRWRDAGHSYDYWGQGTQVTVSS	high polyreactivity
QVHLVESGGGLVQAGGSLRLSSAASGSIFYLNAMGWYRQAPGKERELVATISNGGSTNYADSVQGRFTISRDNAKNTVYLQMNSLKPEDTAVYYCDAASGGTVVGEGDYWGQGTQVTVSS	low polyreactivity
QGQRVESGGGLVQAGASLRLSCAASGFIFWEYAMGWSRQAPGKERELVAAISDSGGDTYYADSVKGRFTISRDNAKNTVYLEMHSLKPEDSAVYFCAADVELWVFRGQQYDYWGQGTQVTVSS	low polyreactivity
QVQVVESGGGLVQAGGSLRLSCAASGSIFPVYAMGWYRQAPGKERELVAAISSGGSTNYADSVKGRFTISRDNAKNTVYLQRNSLKPEDTAVYYSARRWYYVRHGYWGQGTQVTVSS	high polyreactivity
QVQLVESGGGLVQAGGSLRLSCAASGFTFPYNAMGWYRQPPGKERELVAAISRGAGRTYYADSVKGRFTISRDNAKNTVYLQMNSLKQEDTAVYYCAKAPGQDTPYPYGYWGQGTQVTVSS	high polyreactivity
QVQLVESGGGLVQAGGSLRLSCAASGRTFRSNAMGWYRQAPGKERELVATISGRGGSTYYADSVKGRFTISRDNAKNTVYLQMNSLKPEDTAVYYCNAYSVRLSGAELNYWGQGTQVTVSS	high polyreactivity
QVQLVESAGGFVQAGGSLRLSCAASGLTFYYYAMGWYRQAPGTERELVAAFSTRGTSTYYADSVKGRFTISRDNAKKTVYLQMNSQKPEDTAVYYCAADSYPWGTGGDYWGQGTQVTVSS	high polyreactivity

Sequence	polyreactivity (PSR sort gate)
QVQLVESGGGLVQAGGSLRLSCAASGRIFVYNVMGWYRQAPGKERELVAAISWGTGSTYADSVKGRFTISRDNAKNTVYLQMNSLKPEDTAVYYCAADWLSTKNDYWGQGTQVTVSS	low polyreactivity
QVQLVESGGGLVQAGGSLRLSCAASGFTFFTNAMGWYRQAPGKEREFVAAISKSGSRTYYADSVKGRFTISRDNAKNTVYLQMNSLKPEDTAVYYCAAGYVTLFGFYRYYLWGQGTQVTVSS	high polyreactivity
QVQLVESGGGLVQAGGSLRLSCAASGSTIYDNAMGWYRQAPGKERELVAAITWSVGRTYYADSVKGRFTISRDNAKNTVYLQMNSLKPEDTAVYYCAARSQDRSYFQVFVSDTPYNYWGQGTQVTVSS	low polyreactivity
QVQLVESGGGLVQAGGSLRLSCAASGLIFSKNVMGRYRQAPGKERELVAAISQRGGSTYYADSVKGRFTISRDNAKNTVYLQMNSLKPEDTAVYYCAADNTVSHEDYWGQGTQVTVSS	high polyreactivity
QVHLVESGGGLVQAGGSLRLSCAASGFIFSCYAMGWYRQAPGKERELVATITSGGSTVYADSVKGRFTISRDNAKNTVSLEMNSLKPEDTAVYYSNVDSTLYYLSRDYDYWGQATQVTVSS	high polyreactivity
QVQLVESGGGLVQAGGSLRLSCAASGSIFSFYAMGWYRQAPGKEMELVATISSGDNTNYADSVKGRFTISRDNAKNTVYLQMNSLKPEDNAVYYCAADAWGVDREYDYWGQGTQVTVSS	low polyreactivity
QVQLVETGGGLVQAGGSLRLSCAASGRIFGPYAMGWYRQAPGKERELVAAITWSGVSTYYADSVKGRFTISRDNAKNSVYLQMNSLKQEDTAVYYCAVDPRGHEGVRYNYWGQGTKVTVSS	low polyreactivity
QVQLVESGGGLVQAGGSLRLSCAASGSILRLYAMGWYRQAPGNERDLVAAITYRGGRTDYADSVKGRFTISRDTAKNTVYLQLNSLKPEDTAVFYCAAGYLPSPRYSTSYLYYYWGQGTQVTVSS	high polyreactivity
QVQLVESGGGLVQAGGSLRLICAASGYTFALYAIGWYRQATGKERELVAAITDSDGSTYADSVKGRFTISRDNAKNTFYLQMNSLKQEDTAVYYCAARDPHLQGYSYLSYLTMDYWGQGTQVTVSS	low polyreactivity
QVQLVESRGGLVQAGGSLRLSCAASGSIFNYNAMGCYRQAPGKEREFVAAINQGGTSTYYADSVKGRFTISRDNANHTVYLQMNSLKPEDTAVYYCAALITVYRGSYEYCGQGTQVTVSS	low polyreactivity
QVQLVESGGGLVQAGGSLRLSCAASGRIFGGYTMGWYRQAHGKERELFAAITGSGGRTYYAYSVKGRFTISRDNAKNTVYLQMNSLKPEDTAVYYCNTVYRYRYYWGEGTQVTVSS	high polyreactivity
QVQLVESGGGLVQAGGSLRLSSASSGRTLVPYAMGWYRQAPGKERELVAAISSGGYTNYADSVKGRFTISRDNAKNTVYLQMNSLKPEDTAVYYCAADYPVRSYDYWGQGTQVTVSS	low polyreactivity
QVQLVESAVCLVQAGVSLRLSCAASGIIFDYNAMGWYRQAPGKDREVVAAITSTDNTNYADSVKGRFTISRDNAKNTVYLQMNSLKPEDTAVYYCNTDYWLSVVYAMDYWGQGTQVTVSS	low polyreactivity
QVQLVESGGGLVQAGGSLRLSCAASGFISGSYAMGWYRQAPGKDREFVASISLSDGSTTYADSVKGRFTISRDTAKNPVYLQMNSLKPEDTAVYYCAVQFYYPFTGGTIYEYWGQGTQVTVAS	low polyreactivity
QVQLVESGGGLVQAGGSLRLSCAASGFTFAVSAMGWYRQAPGKERELVAAISRSGTRTYYADSVKGRFTISRDNAKNTVYLQMNSLKPEDTAVYYCAADKYRHGYDYWGQGTQVTVSS	low polyreactivity
QVQLVESGGGLVQAGGSLRLSCAASGSTFVPYTMGWYRQAPGKERELVAAISGSGGTDYADSVKGRFTISRDNAKNTVYLQMNSLKPEDTAVYYCATDGLDFWFIYDYWGQGTQVTVSS	low polyreactivity
QVQLVETCGGLDQAGVSLRLSCAASGIIFKTYAMGWYRQAPGKETEYVAPISVSGGGTYYADSVKGRFTISRDNAKNTVYLQMNSPKPEDTAVYYCAARSWYWRYYTLNPYDYWVQGTQVTVSS	high polyreactivity
QVQLVESGGGLVQAGGSLRLSCAASGSIFDIYAMGWYRQAPGKETELVAAISWNGGDTTYADSVKGRFTISRDNAKNTVYLQMNSLKPEDTAVYYCAADLGYWVADYYWGQGTQVTVSS	high polyreactivity
QVQLVESGGGLVQAGGSLRLSCAASGYILRSNAMGWYRQAPGKEREFVAAITYSGGSTYYADSEKGRFTISLDNAMNSVYLQMNSLKPEDTAVYYCAKTTRYQRGYGYWGQGTQVTVSS	low polyreactivity
QVHLVDSGGGKVQAGGSLRLSCAASGSIFYWNAMGWYRQAPGKERELVATITITTSTNYADSVKGRFTISRDNATHSVYLQMNSMKPEDTAVYYCNAGAPYRYLDEYNYWGQGTQVTVSS	low polyreactivity
QVQLVESGGGLVQAGGSLRLSCAASGFPFVYYVMGWYRPAPGKERELVAAINAGGGYTYYADSVKGRFTISRDNAKNTVYVQMNSLKPEDTAVYYCNARVRVRLGRNWSSYYYWGQGTQVTVSS	high polyreactivity
